Test results published in patent CN116836268A (BEIJING WISDOMAB BIOTECHNOLOGY CO LTD, dated 2023).

Target: Cov-S-RBD-His (SARS-CoV-2, UniProt P0DTC2 319-537)

B1: S4B3-mIgG2a (antibody, V domains shown)
VH: QVQLQQSGAELVKPGASVKMSCKASGYIFNSYSIHWVKKTPGQGLEWIGAIYPGNGDTSNSQRFKGKATLTADKSSSTVYMQLSRLTSEDSAVYYCARDGYDDSYGLDYWGQGTSVTVSS
VL: DIVMTQSQKFMSTSVGDRVSVTCKASQNVGTNVAWYQQKPGQSPKALIYSASYRYSGVPDRFTGSGSGTDFTLTISNVQSEDLAEYFCQQYNSYPLTFGGGTKLEIKR
Kd: 22.8 nM
